Our source for the Appr, IC50 (uM): inhibition of ADP-induced human platelet aggregation and M21 cell attachment to vitronectin values is patent US5747447.

The target in assay [1] is GP IIb-IIIa on human platelets (human), P08514.
The target of assay [2] is T1, vitronectin receptor (M21 melanoma cell attachment assay) (Homo sapiens (Human)), P06756.
T1 chain 1: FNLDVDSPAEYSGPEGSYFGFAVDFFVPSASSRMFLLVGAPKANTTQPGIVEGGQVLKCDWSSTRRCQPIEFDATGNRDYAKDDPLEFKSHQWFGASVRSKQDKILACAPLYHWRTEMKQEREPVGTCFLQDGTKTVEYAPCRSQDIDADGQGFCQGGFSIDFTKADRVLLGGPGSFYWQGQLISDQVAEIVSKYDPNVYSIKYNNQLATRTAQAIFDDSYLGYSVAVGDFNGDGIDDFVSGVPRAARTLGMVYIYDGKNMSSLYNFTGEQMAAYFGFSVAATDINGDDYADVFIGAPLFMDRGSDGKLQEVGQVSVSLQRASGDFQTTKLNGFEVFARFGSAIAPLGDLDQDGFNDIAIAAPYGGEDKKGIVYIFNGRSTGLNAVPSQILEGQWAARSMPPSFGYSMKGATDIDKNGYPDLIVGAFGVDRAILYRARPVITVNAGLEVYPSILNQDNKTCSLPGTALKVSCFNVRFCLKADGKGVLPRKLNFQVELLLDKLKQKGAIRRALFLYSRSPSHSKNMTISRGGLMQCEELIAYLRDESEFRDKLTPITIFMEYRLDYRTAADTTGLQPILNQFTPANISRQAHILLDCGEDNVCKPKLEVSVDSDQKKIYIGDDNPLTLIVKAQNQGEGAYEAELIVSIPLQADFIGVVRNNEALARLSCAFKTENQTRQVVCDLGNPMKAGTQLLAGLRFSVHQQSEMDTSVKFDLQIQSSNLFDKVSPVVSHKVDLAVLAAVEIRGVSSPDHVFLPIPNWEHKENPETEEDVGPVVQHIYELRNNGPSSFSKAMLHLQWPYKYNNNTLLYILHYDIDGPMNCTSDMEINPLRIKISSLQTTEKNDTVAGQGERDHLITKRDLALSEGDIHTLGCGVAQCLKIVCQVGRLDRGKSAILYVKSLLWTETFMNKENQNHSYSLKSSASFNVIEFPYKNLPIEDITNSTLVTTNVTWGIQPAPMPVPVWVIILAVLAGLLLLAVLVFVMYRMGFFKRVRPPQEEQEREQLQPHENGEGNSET
T1 chain 2: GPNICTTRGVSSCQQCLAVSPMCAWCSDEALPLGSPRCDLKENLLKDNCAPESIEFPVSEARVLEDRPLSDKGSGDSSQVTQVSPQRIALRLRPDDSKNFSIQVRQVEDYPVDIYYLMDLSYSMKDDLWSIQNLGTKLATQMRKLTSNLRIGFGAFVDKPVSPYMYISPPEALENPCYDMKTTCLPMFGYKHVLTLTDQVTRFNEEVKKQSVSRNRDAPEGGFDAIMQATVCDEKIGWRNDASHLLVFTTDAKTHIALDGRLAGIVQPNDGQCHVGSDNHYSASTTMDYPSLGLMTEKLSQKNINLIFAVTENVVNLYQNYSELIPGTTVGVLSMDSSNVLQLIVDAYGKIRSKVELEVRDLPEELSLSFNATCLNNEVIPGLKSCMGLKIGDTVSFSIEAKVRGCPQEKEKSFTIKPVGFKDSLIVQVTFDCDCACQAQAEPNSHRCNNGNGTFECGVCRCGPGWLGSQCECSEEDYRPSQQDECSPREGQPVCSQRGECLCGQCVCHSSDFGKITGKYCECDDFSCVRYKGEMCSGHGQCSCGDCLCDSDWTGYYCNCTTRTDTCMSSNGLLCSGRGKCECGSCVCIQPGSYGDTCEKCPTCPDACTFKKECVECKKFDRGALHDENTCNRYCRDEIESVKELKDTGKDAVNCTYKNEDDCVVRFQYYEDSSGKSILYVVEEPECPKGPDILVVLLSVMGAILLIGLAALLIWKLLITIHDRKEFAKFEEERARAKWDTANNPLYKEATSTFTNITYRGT

Consider CGKGDWPC (modifications not checked) [analog #5], for which the Appr, IC50 (uM): inhibition of ADP-induced human platelet aggregation in assay [1] was 5 µM. GCGKGDWPCA (modifications not checked) [analog #3]: the M21 cell attachment to vitronectin in assay [2] was more than 60 µM. Take GCKGDWPCA (modifications not checked) [analog #4]: the Appr, IC50 (uM): inhibition of ADP-induced human platelet aggregation in assay [1] came out at 5 µM.
